Data on one molecule can be found in publication PMC2688778 (Structure (London, England : 1993), 2009).

Holding throughout (test): fluorescence anisotropy
In one series the target is T1, RecE564 R746A (Escherichia coli K12, UniProt P15032 564-866, R746A).
T1 sequence: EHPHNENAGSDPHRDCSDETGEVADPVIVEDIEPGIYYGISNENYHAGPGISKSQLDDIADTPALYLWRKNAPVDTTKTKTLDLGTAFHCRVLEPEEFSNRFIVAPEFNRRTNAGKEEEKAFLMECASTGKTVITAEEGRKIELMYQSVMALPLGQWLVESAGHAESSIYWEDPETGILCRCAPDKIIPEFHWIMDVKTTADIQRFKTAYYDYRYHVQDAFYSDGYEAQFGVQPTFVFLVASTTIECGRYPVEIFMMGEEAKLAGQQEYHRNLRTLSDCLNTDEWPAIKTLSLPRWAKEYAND

The target in another series is T2, RecE564 S617A (Escherichia coli K12, UniProt P15032 564-866, S617A).
T2 sequence: T1 sequence with S54A, A183R

In a further series the target is T3, RecE564 K761A (Escherichia coli K12, UniProt P15032 564-866, K761A).
T3 sequence: T1 sequence with A183R, K198A

The target of another series is T4, RecE564 F661A (Escherichia coli K12, UniProt P15032 564-866, F661A).
T4 sequence: T1 sequence with F98A, A183R

A further series addresses T5, RecE564 K704A (Escherichia coli K12, UniProt P15032 564-866, K704A).
T5 sequence: T1 sequence with K141A, A183R

The target of a further series is T6, RecE564 S615A (Escherichia coli K12, UniProt P15032 564-866, S615A).
T6 sequence: T1 sequence with S52A, A183R

Changes are numbered by the printed parent chain.

B1: F25 (dsDNA)
DNA 1: TAGAGCTTAATTGCTGAATCTGGTG
DNA 2: CACCAGATTCAGCAATTAAGCTCTA
One may read the Kd as the concentration at which binding is half-saturated. As to B1, the Kd with RecE564 R746A amounted to 90 ± 10 nM; in the series with RecE564 S617A, 150 ± 20 nM; with RecE564 K761A it was 130 ± 10 nM; with RecE564 F661A it was 118 ± 8 nM; with RecE564 K704A it was 330 ± 50 nM; with RecE564 S615A it was 100 ± 4 nM.
